{"source": "IntAct's records for PubMed 18647389", "parents": {"B1": {"name": "RalBP1-associated Eps domain-containing protein 2 (Homo sapiens), Q8NFH8 (parent)", "chain": "MEAAAAAAAAAAAAAAAGGGCGSGPPPLLLSEGEQQCYSELFARCAGAAGGGPGSGPPEAARVAPGTATAAAGPVADLFRASQLPAETLHQITELCGAKRVGYFGPTQFYIALKLIAAAQSGLPVRIESIKCELPLPRFMMSKNDGEIRFGNPAELHGTKVQIPYLTTEKNSFKRMDDEDKQQETQSPTMSPLASPPSSPPHYQRVPLSHGYSKLRSSAEQMHPAPYEARQPLVQPEGSSSGGPGTKPLRHQASLIRSFSVERELQDNSSYPDEPWRITEEQREYYVNQFRSLQPDPSSFISGSVAKNFFTKSKLSIPELSYIWELSDADCDGALTLPEFCAAFHLIVARKNGYPLPEGLPPTLQPEYLQAAFPKPKWDCQLFDSYSESLPANQQPRDLNRMEKTSVKDMADLPVPNQDVTSDDKQALKSTINEALPKDVSEDPATPKDSNSLKARPRSRSYSSTSIEEAMKRGEDPPTPPPRPQKTHSRASSLDLNKVFQPSVPATKSGLLPPPPALPPRPCPSQSEQVSEAELLPQLSRAPSQAAESSPAKKDVLYSQPPSKPIRRKFRPENQATENQEPSTAASGPASAATMKPHPTVQKQSSKQKKAIQTAIRKNKEANAVLARLNSELQQQLKEVHQERIALENQLEQLRPVTVL"}, "B2": {"name": "RalBP1-associated Eps domain-containing protein 2 (Homo sapiens), Q8NFH8 (parent)", "chain": "B1 chain", "partner": "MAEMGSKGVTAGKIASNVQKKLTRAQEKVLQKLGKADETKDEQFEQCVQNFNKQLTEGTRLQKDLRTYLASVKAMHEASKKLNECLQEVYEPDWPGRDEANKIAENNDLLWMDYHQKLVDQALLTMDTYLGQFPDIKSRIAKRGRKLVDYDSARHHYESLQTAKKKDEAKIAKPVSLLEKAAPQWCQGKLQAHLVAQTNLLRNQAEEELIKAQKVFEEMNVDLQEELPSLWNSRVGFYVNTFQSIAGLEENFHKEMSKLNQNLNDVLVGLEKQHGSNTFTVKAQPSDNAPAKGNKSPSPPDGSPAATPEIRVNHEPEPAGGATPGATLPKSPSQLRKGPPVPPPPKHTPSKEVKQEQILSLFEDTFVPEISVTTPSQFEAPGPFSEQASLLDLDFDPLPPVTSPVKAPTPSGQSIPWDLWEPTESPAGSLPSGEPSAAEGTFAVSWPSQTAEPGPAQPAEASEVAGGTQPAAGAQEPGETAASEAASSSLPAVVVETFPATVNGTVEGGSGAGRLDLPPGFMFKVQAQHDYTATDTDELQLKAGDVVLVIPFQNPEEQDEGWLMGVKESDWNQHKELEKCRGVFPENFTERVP"}}, "data": [{"variants_of": "B1", "conditions": "with grb2_human GRB2, P62993", "values": [{"variant": "R483A", "effect of a mutation on the interaction": "disrupting interaction"}]}, {"variants_of": "B1", "conditions": "with 1433z_human YWHAZ", "values": [{"variant": "S493A", "effect of a mutation on the interaction": "disrupting interaction"}]}, {"variants_of": "B1", "conditions": "with grb2_human GRB2, P62993", "remark": "another data set of the same source", "values": [{"variant": "P480A", "effect of a mutation on the interaction": "disrupting interaction"}]}, {"variants_of": "B1", "conditions": "with grb2_human GRB2, P62993", "remark": "another data set of the same source", "values": [{"variant": "P484A", "effect of a mutation on the interaction": "disrupting interaction"}]}, {"variants_of": "B2", "conditions": "with bin1_human BIN1, O00499", "values": [{"variant": "R483A", "effect of a mutation on the interaction": "decreasing interaction"}]}, {"variants_of": "B2", "conditions": "with bin1_human BIN1, O00499", "remark": "another data set of the same source", "values": [{"variant": "R483A", "effect of a mutation on the interaction": "disrupting interaction strength"}]}, {"variants_of": "B2", "conditions": "with bin1_human BIN1, O00499", "remark": "another data set of the same source", "values": [{"variant": "P447A", "effect of a mutation on the interaction": "disrupting interaction"}]}]}
